According to publication PMC6167014 (Cancer research, 2017):
Where a chain is given by its changes, count along the chain named. Numbers in names are those of the source.

T1: GST-BAP1-UCH (1–250 aa) (human, UniProt Q92560 1-250)
T1 sequence (looked up): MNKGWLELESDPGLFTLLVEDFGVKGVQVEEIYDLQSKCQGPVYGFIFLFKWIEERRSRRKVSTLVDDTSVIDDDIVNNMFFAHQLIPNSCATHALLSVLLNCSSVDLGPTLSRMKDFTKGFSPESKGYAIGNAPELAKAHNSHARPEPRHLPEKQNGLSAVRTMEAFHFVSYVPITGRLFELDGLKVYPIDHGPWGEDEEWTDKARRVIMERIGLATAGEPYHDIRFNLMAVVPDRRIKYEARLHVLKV

T2: GST-BAP1 (full length) (human, UniProt Q92560 1-729)
T2 sequence (looked up): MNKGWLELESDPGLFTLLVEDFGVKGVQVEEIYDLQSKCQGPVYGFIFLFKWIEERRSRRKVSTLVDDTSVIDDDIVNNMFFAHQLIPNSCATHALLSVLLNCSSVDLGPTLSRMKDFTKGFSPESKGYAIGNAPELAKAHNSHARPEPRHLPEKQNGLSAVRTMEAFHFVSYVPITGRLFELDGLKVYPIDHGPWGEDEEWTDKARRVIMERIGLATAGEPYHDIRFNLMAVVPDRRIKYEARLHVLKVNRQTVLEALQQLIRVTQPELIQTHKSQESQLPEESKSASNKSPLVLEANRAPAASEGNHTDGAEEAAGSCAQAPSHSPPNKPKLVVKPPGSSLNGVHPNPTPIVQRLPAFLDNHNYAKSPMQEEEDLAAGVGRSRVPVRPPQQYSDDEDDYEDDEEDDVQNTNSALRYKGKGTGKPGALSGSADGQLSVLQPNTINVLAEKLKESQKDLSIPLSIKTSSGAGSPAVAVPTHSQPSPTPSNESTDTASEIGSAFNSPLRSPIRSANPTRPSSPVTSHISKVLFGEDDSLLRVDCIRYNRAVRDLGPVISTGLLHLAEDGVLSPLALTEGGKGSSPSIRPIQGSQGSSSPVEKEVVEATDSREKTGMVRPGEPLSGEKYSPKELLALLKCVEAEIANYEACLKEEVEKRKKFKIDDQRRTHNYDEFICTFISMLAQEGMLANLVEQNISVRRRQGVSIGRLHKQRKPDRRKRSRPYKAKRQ

T3: His-BAP1-FL ∆E283-S285 (baculovirus) (human, UniProt Q92560 1-729, ∆E283-S285)
T3 sequence (looked up): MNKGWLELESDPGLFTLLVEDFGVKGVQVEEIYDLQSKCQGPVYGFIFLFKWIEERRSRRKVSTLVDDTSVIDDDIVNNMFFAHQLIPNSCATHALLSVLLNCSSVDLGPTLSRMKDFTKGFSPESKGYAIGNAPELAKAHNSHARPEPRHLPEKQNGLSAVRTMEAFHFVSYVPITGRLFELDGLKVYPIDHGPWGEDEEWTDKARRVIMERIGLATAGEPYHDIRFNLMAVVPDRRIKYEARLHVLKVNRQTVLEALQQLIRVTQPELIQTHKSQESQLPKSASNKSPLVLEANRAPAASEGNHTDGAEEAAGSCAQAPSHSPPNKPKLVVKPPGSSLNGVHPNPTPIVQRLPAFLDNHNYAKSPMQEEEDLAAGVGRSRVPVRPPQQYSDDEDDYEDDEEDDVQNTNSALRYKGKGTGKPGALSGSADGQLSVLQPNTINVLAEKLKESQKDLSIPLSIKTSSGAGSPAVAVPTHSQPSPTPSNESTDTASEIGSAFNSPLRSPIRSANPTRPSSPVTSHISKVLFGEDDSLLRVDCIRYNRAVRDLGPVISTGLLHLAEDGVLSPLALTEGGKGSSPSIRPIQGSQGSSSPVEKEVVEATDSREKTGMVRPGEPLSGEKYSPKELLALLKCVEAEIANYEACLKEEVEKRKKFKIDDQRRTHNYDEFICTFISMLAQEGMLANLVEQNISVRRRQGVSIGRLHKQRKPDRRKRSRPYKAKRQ

T4: GST-BAP1-ULD (human, UniProt Q92560 601-729)
T4 sequence (looked up): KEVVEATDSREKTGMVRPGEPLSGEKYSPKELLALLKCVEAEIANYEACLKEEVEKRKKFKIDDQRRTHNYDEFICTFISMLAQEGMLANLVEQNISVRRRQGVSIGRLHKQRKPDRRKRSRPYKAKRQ

B1: His-BAP1-ULD (601–729) WT (domain or fragment, human, UniProt Q92560 601-729, looked up)
chain: T4 sequence (looked up)
B2: His-BAP1-ULD L650P (domain or fragment, human, UniProt Q92560 601-729, looked up)
chain: T4 sequence (looked up) with L50P
B3: His-BAP1-ULD F660P (domain or fragment, human, UniProt Q92560 601-729, looked up)
chain: T4 sequence (looked up) with F60P
B4: Flag-ASXL2 (261–649 aa) (baculovirus) (domain or fragment, human, UniProt Q76L83 261-649, looked up)
chain: MKRTKCADIDVETPDSILVNTNLRALINKHTFSVLPGDCQQRLLLLLPEVDRQVGPDGLMKLNGSALNNEFFTSAAQGWKERLSEGEFTPEMQVRIRQEIEKEKKVEPWKEQFFESYYGQSSGLSLEDSKKLTASPSDPKVKKTPAEQPKSMPVSEASLIRIVPVVSQSECKEEALQMSSPGRKEECESQGEVQPNFSTSSEPLLSSALNTHELSSILPIKCPKDEDLLEQKPVTSAEQESEKNHLTTASNYNKSESQESLVTSPSKPKSPGVEKPIVKPTAGAGPQETNMKEPLATLVDQSPESLKRKSSLTQEEAPVSWEKRPRVTENRQHQQPFQVSPQPFLNRGDRIQVRKVPPLKIPVSRISPMPFHPSQVSPRARFPVSITSP
B5: His-ASXL2-AB (261–381 aa) (domain or fragment, human, UniProt Q76L83 261-381, looked up)
chain: MKRTKCADIDVETPDSILVNTNLRALINKHTFSVLPGDCQQRLLLLLPEVDRQVGPDGLMKLNGSALNNEFFTSAAQGWKERLSEGEFTPEMQVRIRQEIEKEKKVEPWKEQFFESYYGQS
B6: His-BAP1-ULD ∆K637-C638 (sub of N) (domain or fragment, human, UniProt Q92560 601-729, looked up)
chain: KEVVEATDSREKTGMVRPGEPLSGEKYSPKELLALLNVEAEIANYEACLKEEVEKRKKFKIDDQRRTHNYDEFICTFISMLAQEGMLANLVEQNISVRRRQGVSIGRLHKQRKPDRRKRSRPYKAKRQ

Assays:
GST-BAP1-UCH (1–250 aa) = biological target: T1, GST-BAP1-UCH (1–250 aa); assay: pull-down
GST-BAP1 (full length) = biological target: T2, GST-BAP1 (full length); assay: pull-down
[1] = biological target: T3, His-BAP1-FL ∆E283-S285 (baculovirus); assay: co-IP
GST-BAP1-ULD = biological target: T4, GST-BAP1-ULD; assay: pull-down
[2] = biological target: B1; assay: pull-down

Binder | binding result (GST-BAP1-UCH (1–250 aa)) | binding result (GST-BAP1 (full length)) | other results
B1 | binds | – | –
B2 | binds | – | –
B3 | binds | – | –
B4 | – | binds | binding result [1]: binds
B5 | – | binds | binding result (GST-BAP1-ULD): binds; binding result [2]: binds
B6 | binds | – | –
